Laboratory results taken from patent US20170173114A1, “METHODS AND COMPOSITIONS FOR INDUCTION OF UCP1 EXPRESSION” (Joslin Diabetes Center, Inc., priority 2014, published 2017).
Entries after “also recorded” stand apart in the source; their conditions may differ.

Tests used:
UCP1 [1] = assay: UCP1 mRNA expression (Q-RT-PCR) in WT-1 brown preadipocytes; type: cell-based, murine
Procedure: Total RNA was isolated with QIAzol lysis reagent (Qiagen, Valencia, Calif.) and purified by RNeasy Mini columns (Qiagen) following the manufacture's instructions. cDNA was prepared from total RNA using the Advantage RT-PCR kit (BD Biosciences, Palo Alto, Calif.) according to manufacturer's instructions. Diluted cDNA was used in a PCR reaction with SYBR Green Master Mix (Applied Biosystems, Foster City, Calif.) and primers specifically designed for detection of the gene of interest. PCR reactions were run in duplicate for each sample and quantitated in the ABI Sequence Detection System (Applied Biosystems). Data were expressed as arbitrary units after normalization to levels of expression of internal controls for each sample. Sequences of primers for specific genes are each obtained from the published literature or designed using publically available gene sequence databases. Unless otherwise indicated, gene expression data described in the examples below was obtained using QPCR.
The effect of FGF6 on differentiation of WT-1 murine brown preadipocytes was also examined. WT-1 cells can be induced to undergo brown adipocyte differentiation, characterized by lipid accumulation and expression of adipogenic and brown fat markers, as described above (Klein et al. (1999) J Biol Chem 274:34795; Tseng et al. (2005) Nat Cell Biol 7:601). WT-1 cells were treated with FGF6 in growth media (DMEM+10% FBS), a vehicle control (“control” or “C” referred to in FIGS. 3A-D), or induction media (“induction” or “I” referred to in FIGS. 3A-D) as described above for seven days. Following the treatment, cells were examined for the color of the culture media in combination with oil Red O staining, expression of adipogenic markers, expression of brown fat markers, immunofluorescent staining of cells with UCP1 and DPAI, and Western blot analysis to determine the presence of UCP1 and β-tubulin. The results are described in FIGS. 3A to 3D.
UCP1 mRNA expression in brown adipocyte cells was determined at FGF6 concentrations ranging from 0 to 300 ng/ml in the absence of induction cocktail.
In order to determine the length of time necessary to induce UCP1 expression upon exposure to of cells to FGF6, an experiment was performed whereby FGF6 was administered to brown preadipocytes at a concentration of 200 ng/ml and UCP1 expression was determined. FGF21 and a control were also used in the time course experiment. FGF21, a member of the endocrine FGF ligands that has been implicated in the browning of white fat (Fisher F. M. et al., Genes Dev. 26:271-281, 2012). […] FGF6 could acutely induce a significant increase of UCP1 expression as early as 4 hours after a 200 ng/ml dose, as described in FIG. 4B. At 24 hours, the fold-induction of UCP1 mRNA by FGF6 reached 700-fold higher than the untreated cells, as described in FIG. 4B.
(§1) To assess FGF6's role in the regulation of mitochondrial activity, FGF6 was stably expressed in WT-1 brown preadipocytes and 3T3-F442A white preadipocytes. Stable cells were generated by viral infection followed by drug selection.
FGF2, FGF6 and FGF9 were used at a dosage of 50 ng/mL, 100 ng/mL, 200 ng/mL or 300 ng/mL. FGF21 was used at the dosage of 50 ng/ml and 500 ng/mL. The concentration of BMP7 was 3.3 nM. RNA was isolated and UCP1 and PPARγ expression levels were evaluated by quantitative reverse transcription polymerase chain reaction (Q-RT-PCR) analysis after 24 hours (i.e., 1 day) (FIG. 14A), 2 days (FIG. 14B), 5 days (FIG. 14C) and 7 days (FIG. 14D) of treatment. All experiments were performed triplicate and the data are presented as mean+/−SEM.
FGF2, FGF6 and FGF9 were used at a dosage of 200 ng/mL. FGF21 was used at a dosage of 500 ng/mL. The concentration of BMP7 was 3.3 nM. mRNA was isolated and UCP1 and PPARγ expression levels were evaluated by quantitative reverse transcription polymerase chain reaction (Q-RT-PCR) analysis after 24 hours (i.e., 1 day), 2 days, 5 days and 7 days of treatment (FIG. 15). […]

UCP1 [2] = assay: High-throughput screen of secreted proteins for UCP1 mRNA induction in committed brown preadipocytes; type: cell-based, murine; settings: after induction media; secreted protein library
Procedure: To identify protein(s) that can induce UCP1 expression in brown preadipocytes, a high-throughput screen was performed using a protein library containing more than 5,000 mammalian secreted proteins (Lin H. et al., Science 320:807-811, 2008) in an immortalized murine brown preadipocyte cell line (Klein J. et al., J. Biol. Chem. 274:34795-34802, 1999; Tseng Y. H. et al., Nat. Cell. Biol. 7:601-611, 2005). The screen included applying induction media to brown preadipocyte cells, resulting in committed brown preadipocytes.

[3] = system: 3T3-F442A white preadipocytes; assay: Seahorse Bioanalyzer cellular respiration in 3T3-F442A white preadipocytes; type: cell-based; settings: constitutive overexpression of FGF6
Text: The Seahorse XF24 (Seahorse Bioscience, http://www.seahorsebio.com/) was utilized for respirometry to measure oxygen consumption rates (OCR; indicating oxidative phosphorylation) and extracellular acidification rates (ECAR; indicating extracellular pH) in mature brown adipocytes. The cell plates and assay cartridges for the Seahorse XF24 have four ports allowing for drug delivery to individual wells during measurement of the metabolic parameters. For a typical bioenergetic profile, cells are first treated with oligomycin to block ATP synthase, FCCP as an uncoupler and Rotenone to block Complex 1 of the ETC (all from Sigma). Example 2 provides additional details regarding the general method. Data provided in the Figures (e.g., FIG. 27) based on the Seahorse Bioanalyzer includes a bottom horizontal line which represents the baseline of the mechanics of the machine and is not related to the experiment.
as §1
A profile of cellular respiration was developed by utilizing well-characterized mitochondrial toxins, as described in FIG. 5B. First, basal respiration was measured, followed by injection of oligomycin (an inhibitor of ATP synthase which allows measurement of ATP turnover). Then, the uncoupler FCCP (carbonilcyanide p-triflouromethoxyphenylhydrazone) was injected to measure respiratory capacity, followed by the complex 1 inhibitor rotenone (which prevents electron transfer activity and leaves only non-mitochondrial activity to be measured).
As mentioned above, 3T3-F442A white preadipocytes were also used to determine FGF6's role in mitochondrial activity regulation.

[4] = 0 to 300 ng/ml, absence of induction cocktail, day 7

B1: FGF6: fibroblast growth factor 6; recombinant human FGF from R&D Systems, or mouse FGF6 cDNA overexpressed by lentiviral vector (protein)
chain: KRQRRLYCNVGIGFHLQVLPDGRISGTHEENPYSLLEISTVERGVVSLFGVRSALFVAMNSKGRLYATPSFQEECKFRETLLPNNYNAYESDLYQGTYIALSKYGRVKRGSKVSPIMTVTHFLPRI
FGF6 concentration at which UCP1 gene expression plateaued (UCP1 [1]; [4]): about 200 ng/ml | UCP1 gene expression, dose response (UCP1 [1]; [4]): dose-dependent manner | earliest time of significant increase of UCP1 expression (UCP1 [1]; 200 ng/ml): 4 h | fold-induction of UCP1 mRNA over untreated cells (UCP1 [1]; 200 ng/ml, 24 hours): 700 fold | UCP1 levels with prolonged exposure (UCP1 [1]; 200 ng/ml, time course): continued to rise | UCP1 expression level (UCP1 [1]; 50-300 ng/mL with insulin and T3, 1, 2, 5 and 7 days, dose-responsive): very high levels of UCP1 | UCP1 expression level, time course (UCP1 [1]; FGF2, FGF6, FGF9 200 ng/mL, FGF21 500 ng/mL, with insulin and T3, 1, 2, 5, 7 days): very high levels of UCP1 | UCP1 mRNA expression (UCP1 [1]; WT-1, 24 hours, vs vehicle): significantly induced | UCP1 mRNA expression (UCP1 [1]; WT-1, growth media, seven days, vs control or induction media): significantly increased; also recorded: extremely high levels | UCP1 expression over basal level (UCP1 [1]; constitutive overexpression of FGF6 in WT-1): greatly increased; also recorded: marked increases | UCP1 mRNA expression in committed brown preadipocytes (screen) (UCP1 [2]): induced UCP1 mRNA expression | gain of ATP turnover [3]: 5 fold | gain of proton leak [3]: 5 fold | increase in cellular respiration [3]: 5-10 fold | increase of basal respiration [3]: ~7 fold | increase of maximal respiratory capacity [3]: ~6 fold
